# According to the supplement of paper PMC12636428:
# Test system: Saccharomyces cerevisiae
# Test: transcriptional activation domain activity (GFP:mCherry ratio, weighted mean of sorted bins, harmonized to initial dataset scale) (arbitrary fluorescence ratio units); higher = stronger transcriptional activation
# Conditions: beta-estradiol 1 µM; induction time 4 h
# Procedure, shortened: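 The listed activation activity is a read-weighted mean of bin median fluorescence, averaged across barcodes and linearly mapped onto the initial dataset scale. Barcoded tiles, fused to an estradiol-inducible synthetic transcription factor, were integrated at URA3 in yeast diploids bearing a GFP reporter. Cells were held 4 hours at 30 °C in SC with 1 uM beta-estradiol, sorted into 8 GFP:mCherry bins, and sequenced, and tiles with fewer than 50 reads were excluded.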
sequence,measurement,value
MGYYVVLLTELLISCLCSPSLLYSPFLLICDSFPCSRRVFKLAFILFYILIVT,transcriptional activation domain activity,43400
LQHRTWLIHWSLFPLFNYEQARETLTELFFSAPYINTIQTNCPWILRYLAAAV,transcriptional activation domain activity,28100
DAARGGYQSAGGAGTGSDSETNRGRGRGGRGGFRGERGGRGRGRGATPAKTEG,transcriptional activation domain activity,27200
IPLKKLCHAAIADLFRFLVLSKKDSKDIVARQRLQVAAWMGLWPPKIQRNKWV,transcriptional activation domain activity,45600
KPDLYLDILKIIAYSLDDVKFRACQVLFHYYFVSLGHVVVAEALPKLGVTVEI,transcriptional activation domain activity,36400
ELLSVLIPPSPAETRGPTTLSTSPSFNEHGVVAEASFLSSILELGIKHPKSNN,transcriptional activation domain activity,27900
SGEATATPEKSKTPRKRKTKAEGDSADNGDADGSPKKKAGGRKKKADVVKEEM,transcriptional activation domain activity,23600
MRGLCRSLKLCKLFVTMFDGWMMLFSFFFFFLFLLFFYYYSCCSDGFLLCFFL,transcriptional activation domain activity,42500
TLPQEDTQSTEDTKVEKKLVIASLLSRMLIPTIIMAPLLALTAKFVPVSILDD,transcriptional activation domain activity,52400
LACFLGLTFTLFLLIYFFFLSIFSFIILSLLCVLHHSACLPCLNFHMLPFCPF,transcriptional activation domain activity,61100
CLFFFSLFSLFILIFLSFLFFPPTSCFPSLYFLFYLSHFLLSFSFLYLYRYRF,transcriptional activation domain activity,39500
GKKKGKRGKGKGKRGRGKGRGEREGWQGKAAGKEGAGKKGAGEGEQGKGSRGK,transcriptional activation domain activity,44300
KYLIQSLILYPVPLLQVIITYFVQIKRYDISTVVGCSLLNVYYPNWMFLVFFL,transcriptional activation domain activity,58800
MTVSLQLYSHTLQLVLCCACAPPLLKFLLFCFFFFFWFFFFFWFCFWFFLLMF,transcriptional activation domain activity,38000
ILLGLLVLVLLYANVVLIIYHEPTFRRPLDMAFIHAPIRLFFILPFGVLFWYS,transcriptional activation domain activity,63100
LLTEHFLLRVFAVFTAYIVELWMLKVAYLGYYFQLRQYLSEKSRMIYIGTCVY,transcriptional activation domain activity,63300
MTWFLSFWLKCGFVLLGLFFDFFLFCNRFLYASISFFFFFHSLSLFWNRNHLF,transcriptional activation domain activity,79900
LSILIYESIPERRQSSLARSDGISAMDVCVSLLVTLAHLSPLVSRFGGVTING,transcriptional activation domain activity,72500
DEVMKIMPVQKQTRAGQRTRFKAFVVIGDSEGHVGLGVKCAKEVATAIRGAII,transcriptional activation domain activity,59300
MCARSLFCGYIFFLVLYLLAWLGVFPCPFTLFLLSFLFPIFFFLLCWRLAFAC,transcriptional activation domain activity,45800
KLLRWYIYPCAYRLGTVCCLFLSEIYNERHRKLSYAVMEPDTWPIMFTDKLAR,transcriptional activation domain activity,74900
HHLSSQLVFSRSRFFYSSFTSWINVFLVISLIVFLLSILLLFLIIFLLHYIFF,transcriptional activation domain activity,24800
WWLRINLNICISYWIVATGVVVVYDWVLTLYGACQILLVMQMFVLGPCLILSV,transcriptional activation domain activity,46900
ADTILITMVGIFDLIACFFTCIVQVLRFKMGISVQEILIWCWFDLLIFSTSTF,transcriptional activation domain activity,34300
FFLFLFFPFSFSFLFFSFFHFLPMLAHCYNGVTISVSLWFPLILASLFRPFLL,transcriptional activation domain activity,64300
AASFISRTMLVLARQKFYNWYGVPQRRLYRDQSVHGTTKKRTWLIKLLSPLLF,transcriptional activation domain activity,47200
EKKGKEGKRMRREKREIKEPEEKWEEKKKKPEEPEDVGARPRKPRREESKSRA,transcriptional activation domain activity,37600
EGGEKGGHGGKEGGEGGEGGEGGEEGGHGGHWGHKKHGHGGGKQKGGWGHHGY,transcriptional activation domain activity,45300
GHDGPQQQQQRKKPAAAAAAGKGKEKGKGKGKGQVVVVASKPAKKAASAAAAA,transcriptional activation domain activity,28700
MSFLGLSFFAYLLGVGWILLFCLSFGLPQPLSFITWDCLTRGGFFFLLYFFCF,transcriptional activation domain activity,44500
PFCMVNAKTVTLRMIESIHKLRRVLVRSEDEIIRLISPVSAKVLCTCLPLFEM,transcriptional activation domain activity,60400
GRNKRREKRPEEETTRQRRKGKREEQERRRTTKAGTKAEKRGEERRASGDANE,transcriptional activation domain activity,23100
MSFFCLFHQLFDISCIFIYLILLENHFSLLCYLLLIFNFNCYFVIFSFLVLNF,transcriptional activation domain activity,54800
LDGSVDTSAPLDTGLFNSWMDIFQAFPFPAEGFTPDSFNDNYPIDPNQTFLTI,transcriptional activation domain activity,141000
MLQIRSFVIAAFALPLCLLFCFFTLPFFALCPFLLYFPSFSILLLRLMLHLLV,transcriptional activation domain activity,49200
LCRLWGAWGLFTFGLGVLLSAINMRMVLFYRVFITVNLTARSNSKIVNFFRKF,transcriptional activation domain activity,51100
MFVVLAMLLVILVVIFIFVIFVLIVLIFVILVMLLMLFFILIVIIAVIVLFFF,transcriptional activation domain activity,16700
LALVIDVRFPKHPTMSNYSLVCAVRALLDFVELARYPVHTDATLRLLNDALRV,transcriptional activation domain activity,51200
MRLCFAKYHFPPPSTFFPPLLFSLLCPVAFYANYCPFFFFFLFLFPYSFFVQE,transcriptional activation domain activity,63600
PVKKLYLLVQYIQDLGRVCGIPVSPLCCVQALQAKLGPIAQACVSARIWARWR,transcriptional activation domain activity,67400
MCFRILLSFLHVHPLFENALFYEISLICLLISWRSSTCSMHLLFIFIFILFFC,transcriptional activation domain activity,42200
MQAGIHNVLFHFRNKWWIQIIGSGLPYFVLLAGRGLMCIFLFLIFRLRRCLCV,transcriptional activation domain activity,67300
